{"source": "paper PMC8629192", "molecular_target": "SARS-CoV-2 spike protein (Wuhan-Hu-1), recombinant full-length spike with C-terminal histidine (SARS-CoV-2) (UniProt P0DTC2)", "test": "ELISA", "data": [{"substance": "LRRC15-Fc (from UniProt Q8TF66) (Fc fusion)", "values": [{"measurement": "Kd", "value": 0.109, "unit": "µM"}]}]}
